The test system of experiment [1] is IL-6 in HK2 human transformed kidney proximal tubule cells. The experiment is described as follows: IL-6 level in HK-2 cell medium after TNF-alpha stimulation (ELISA). In kind it is cell-based. As to conditions: for effect on level of IL-6 in HK2 cell medium: after TNF-alpha inflammatory stimulation, FIG. 6, FIG. 10. Here is the method: The immortalized PTEC-derived HK-2 (Human Kidney-2) cells (ATCC number CRL-2190) were grown in serum-free keratinocyte medium (GIBCO number 17005-042) supplemented with epidermal growth factor (EGF: 5 ng/mL) and bovine pituitary extract (40 ug/mL) for 48 hours as described previously (Ryan et al (1994) Kidney International 45:48-57). Cells were transferred to 24-well plates at a density of 3×10^5 cells per well. After 24 hours, cells were incubated with fresh medium containing TNF-alpha (5 ng/mL) for 20 hours. Controls received medium alone. Then cells were washed twice with fresh culture medium and further incubated with culture medium alone (medium control, and TNF control wells) or TDF-1 at three different concentrations (40, 200 or 1000 ng/mL) or TDFRP compounds at three different concentrations (4, 20 or 100 uM) for sixty hours. During incubation, cells were kept in a 5% CO2 humid atmosphere at 37° C. At the end of the incubation, the media were removed and stored frozen until assayed. The concentrations of IL-6 and sICAM-in culture supernatants were measured by specific ELISA.
Dilute the capture antibody to the working concentration in PBS, pH 7.4 without carrier protein. Add 61 uL of stock antibody (360 ug/mL) to 10.939 mL of PBS, gently vertex. Immediately coat a 96 well microplate (Immulon 4 HBX) with 100 uL per well of the diluted capture antibody. Seal the plate and incubate it overnight in cold (4° C.). (PBS: 8.1 mM Na2HPO4, 1.5 mM KH2PO4, 137 mM NaCl, 2.7 mM KCl, pH 7.4, 0.2 um filtered). Next day empty the wells and wash the wells three times, each time using 340 uL of wash buffer per well. (wash buffer: PBS, pH 7.4 containing 0.05% Tween-20).
Prepare blocking buffer, 35 mL per plate. To prepare blocking buffer, add 0.35 grams of BSA and 1.75 grams of sucrose to 35 mL of PBS, pH 7.4, and mix the contents gently. Add 300 uL of blocking buffer to each well and incubate the plate for a minimum of 1 hour at room temperature. Empty the wells and wash wells three times, each time using 340 uL of wash buffer per well.
Prepare a 8 point standard curve using 2-fold serial dilutions in reagent diluent. Dilute stock standard, recombinant IL-6, 70 ng/mL to an initial concentration of 2400 ng/mL in reagent diluent. Then further dilute the standard to a working range, 1200, 600, 300, 150, 75, 37.5, 18.75 and 9.375 ng/mL using reagent diluent. (to prepare reagent diluent, add 0.4 grams of BSA to 40 mL of PBS, pH 7.4 and gently vertex). Also dilute 24 uL of each sample medium (from HK-2 cell cultures) with 376 uL of reagent diluent. Add 100 uL of standard or sample per well, seal the plate and incubate it overnight in cold (4° C.).
Next day, empty the wells and wash wells three times, each time using 340 uL of wash buffer per well. […]

Experiment [2] has as its target T1, BMPR-1A (ALK3) receptor extra cellular domain (Homo sapiens, UniProt P36894).
T1 construct: immobilized BMPR-1A receptor extra cellular domain (ECD)
The experiment is described as follows: Radio-ligand receptor binding assay, competition with 125I-labeled TDF-1 for ALK-3. Particulars: FIG. 1; cold ligand vs 125I-labeled TDF-1; read-out: ED50, displacing labeled TDF-1 from immobilized BMPR-1A receptor ECD. An excerpt: General protocol: These assays are based on competition between ^125I-labeled TDF-1 (BMP-7 or OP-1) and candidate TDFRP compounds or unlabeled TDF-1 for binding to respective receptors (ALK-3, ALK-6 or BMPR-2). In brief, the procedure involves immobilization of receptor on 96 well Removawell plates, blocking the wells with 3% BSA in PBS and subsequently washing the wells. Increasing concentrations of unlabeled TDF-1 or TDFRP compounds or control (unlabeled TDF-1) prepared in binding buffer are then added. Incubate plate for 1 hour at room temperature, and then add a fixed amount of ^125I-labeled TDF-1 (250,000 to 350,000 cpm) to the wells and further incubate in cold (4° C.) for 20 hours. Aspirate the contents of the wells and wash the wells four times with a wash buffer, and count the receptor bound ^125I-labeled TDF-1 in an auto gamma counter. B. HK-2 Cell Culture and Determination of Cytokine Production

Experiment [3] relates to end stage renal failure in a remnant kidney. Particulars: rats, administered systemically, remnant kidney (5/6 nephrectomy); cited from earlier work.
The subject of experiment [4] is unilateral ureteral obstruction. As to conditions: rats, administered systemically, UUO; cited from earlier work.

Entries after “also recorded” stand apart in the source; their conditions may differ. Where a SMILES comes first, the peptide text is derived from it.

These results are taken from patent publication US7482329B2, “Single domain TDF-related compounds and analogs thereof” (Thrasos Therapeutics, priority 2002, dated 2009).

T1 sequence (P36894 24-152 limits assumed, species assumed): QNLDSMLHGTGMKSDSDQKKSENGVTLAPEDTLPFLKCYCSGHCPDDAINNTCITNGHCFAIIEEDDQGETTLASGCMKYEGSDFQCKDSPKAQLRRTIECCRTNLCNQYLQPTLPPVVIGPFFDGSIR

Turning to `CC(C)C[C@H](NC(=O)[C@@H](NC(=O)[C@H](CC(N)=O)NC(=O)[C@H](CO)NC(=O)[C@H](CO)NC(=O)[C@H](CC(=O)O)NC(=O)[C@H](CC(=O)O)NC(=O)[C@H](Cc1ccccc1)NC(=O)[C@H](Cc1ccc(O)cc1)NC(=O)[C@@H](N)CS)C(C)C)C(=O)N[C@@H](CS)C(=O)N[C@@H](CCCCN)C(=O)N[C@@H](CCCCN)C(=O)N[C@@H](Cc1ccc(O)cc1)C(=O)N[C@@H](CCCNC(=N)N)C(=O)N[C@@H](CO)C(=O)O` [SEQ ID NO:45, CYFDDSSNVLCKKYRS] (H-CYFDDSSNVLCKKYRS-OH), in experiment [1] (HK2 cells, 5 ng/ml TNF-alpha stimulus, FIG. 6, read-out: ED50, lowering of IL-6 level), the EC50 is about 10 µM. Further, the “effect on level of IL-6 in HK2 cell medium” value in experiment [1] was “reduces the level of cellular inflammation marker IL-6; also recorded: lowers the level of IL-6 in a dose dependent manner”.

B1: TDF-1: TDF-1 (BMP-7 or OP-1), bone morphogenetic protein-7; unlabeled control ligand in the binding and cell assays (protein)
chain: STGSKQRSQNRSKTPKNQEALRMANVAENSSSDQRQACKKHELYVSFRDLGWQDWIIAPEGYAAYYCEGECAFPLNSYMNATNHAIVQTLVHFINPETVPKPCCAPTQLNAISVLYFDDSSNVILKKYRNMVVRACGCH
In the case of B1, the EC50 in experiment [2] was 0.0065 µM. Also, the “effect on level of IL-6 in HK2 cell medium” value in experiment [1] is “lowers the level of IL-6 in a dose dependent manner; also recorded: brings the IL-6 level down below the basal level”. In addition, the “progression of end stage renal failure” value in experiment [3] is on record as “halts the progression of end stage renal failure”. Further, in experiment [4], the “prophylaxis in unilateral ureteral obstruction” value was “short term prophylaxis”.
